Assay results from patent publication WO2018102654A1 (dated 2018).

Target: gastric inhibitory polypeptide (GIP), species not stated
Assay: modified Schild's assay plot, reporter cell line expressing GIP receptors

gastric inhibitory polypeptide (GIP), species not stated, sequence (P09681 52-93): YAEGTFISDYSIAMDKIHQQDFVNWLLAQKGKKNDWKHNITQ

Row | Kd [nM] | Binder
1 | 3200 | 10g10 monoclonal antibody (original mouse mAb from hybridoma 10g10) (antibody, V domains shown, Mouse antibody from a hybridoma; also called 10g10 mAb; 10g10 GIP mAb) VH: QVQLQESGAELVRSGASVKLSCTASGFNIRDYYLHWIKQRPEQGLEWIGWIDPENGDTEYAPKFQDKATVTADTSSNTAYLQLNSLTSEDTAVYYCNVYGIYFMDYWGQGTTVTVSS VL: DIQLTQSPSTMAASPGEKITITCSASSSISSNSLHWYQQKPGFSPKLLIYRTSNLASGVPGRFSGSGSGTSYSLTIGTMETEDVATYYCQQGSSFPRMLTFGTGTKLEIKR
2 | 2200 | LC2/HC2 humanized antibody (antibody, V domains shown, CHO supernate in the ELISA; Protein A purified in the neutralization assay; also called mAbH; GIP mAbH) VH: QVQLVQSGAEVKKPGATVKISCKASGFNIRDYYLHWVQQAPGKGLEWMGWIDPENGDTEYAPKFQGRVTITADTSTNTAYMELSSLRSEDTAVYYCNVYGIYFMDYWGQGTMVTVSS VL: DIQLTQSPSSVSASVGDRVTITCRASSSISSNSLHWYQQKPGKAPKLLIYRTSNLQSGVPSRFSGSGSGTDYTLTISSLQPEDFATYYCQQGSSFPRMLTFGQGTKLEIKR
